Measured values from the nanobody polyreactivity screen of Harvey et al. (2022).

Assay: yeast display, Sf9 membrane polyspecificity reagent, FACS + sequencing; frameworks hold sequencing errors
Summary of the method: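 Galactose-induced (36–48 hours) yeast carrying a synthetic nanobody display library were exposed to 10% biotinylated, detergent-solubilized Sf9 membrane reagent at 4 °C for 1 hour. FACS followed streptavidin microbead enrichment, using low and high (top ~1%) gates for expression (anti-HA) and reagent binding (streptavidin). Colony PCR, MiSeq 2 × 250 sequencing and CDR-length filtering followed. Labels for polyreactivity reflect the gate of origin.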

Row | Sequence | polyreactivity (PSR sort gate)
1 | QDQLVESGGGLVQAGGSLRLSCAASGIIFDYYAMGWYRQAPGKERELVASISWSGGGTYYADSVKGRFTISRDNAKNTVYLQMNSLKAEDTAVYYCAADGSTVNAPRWSDPYDYWGQGTQVTVSS | low polyreactivity
2 | QDQLVESGGGLVQAGGSLRLSCAASGIIFYDYAMGWYRQAPGKERELVAAITSNGDNTYYADSVKGRFTISRDNAKNTVYLQMNSLKPEDTAGYYCAVDGSFAADFDNYLEEYGYWGQGTQVTVSS | low polyreactivity
3 | QDQLVESGGGLVQAGGSLRLSCAASGIILRYYVMGWYRQAPGKERELVAAITSRGGSTYYADSVKGRFTISRDNAKNTVYLQMNSLKPEDTAVYYCAAGYRNVNTFDYWGQGTQVTVSS | high polyreactivity
4 | QDQLVESGGGLVQAGGSLRLSCAASGILDRYAMGWYRQAHGKERELFAAISYIAGSTYYADSVKGRFTISRDNAKNTVYLQLNSLKPEVTAVYYCAARGFGTVNGKLYGYWGQGTQVTVSS | high polyreactivity
5 | QDQLVESGGGLVQAGGSLRLSCAASGITFAYYVMGWYRQATGKERELVAAISRSGSTYYADSVKGRFTISRDNAKNTVYLQMNSLKPEDTAVNYCAVLYIRWYTYEYWGQGTQVTVSS | high polyreactivity
6 | QDQLVESGGGLVQAGGSLRLSCAASGITFSGNAKGCYRQAPGKETELVAAISRNGGRTYYADSVKGRFTISRDNAKNTVYLQMNSLKQEDTAVYYCAKDAYGYFRVSAWYYTYDYWGQGTQVTVSS | high polyreactivity
7 | QDQLVESGGGLVQAGGSLRLSCAASGITIYRYVMGCSRQAPGKEREFVASITQSTGSTHYADSVKGRFTISRDNAKNTVYLQMNSLKPEDTAVYYCNAQKIVYYWVTLFPYYYWGQGTQVTVSS | low polyreactivity
8 | QDQLVESGGGLVQAGGSLRLSCAASGLIFFFYPMGWYRQAPGKERELVASISGGGITYYADSVKGRFTISRDNAKNTVYLQMNSLKQEDTPVIKNDYWGQGTQVTLSS | low polyreactivity
9 | QDQLVESGGGLVQAGGSLRLSCAASGLSFASYVMGWYRQAPGKERELVAAISSSGDSTYYADSVKGRFTLSRDNAKNTVYLQMNSLKPEDTAVYYCAAKDYVWGQGTQVTVSS | low polyreactivity
10 | QDQLVESGGGLVQAGGSLRLSCAASGLTFKRNAMGWYRQAPVKERELVAAIRYSTDSTNYADSVKGRFTISRDNAKNTVYLQLNSMNPEDTAVYYCAKDKQDYEYWGQGTQVTVSS | low polyreactivity
11 | QDQLVESGGGLVQAGGSLRLSCAASGLTFLWYNMGWYRPAPGKERELVAGITWSGGSTYYADSVKGRFTISRDNAKNTVYLQMNSLKPEDTAVYYCAASFLWKVTGEYYYWGQGTQVTVSS | high polyreactivity
12 | QDQLVESGGGLVQAGGSLRLSCAASGLTFTYYAMGWYRQAPGKERELVAAMTWNGGRTYYADSVKGRFTISRDNAKNTVYLLMNSLKPEDTAVYYCNARYILSSSGFGYWRQGTQVTVSS | high polyreactivity
13 | QDQLVESGGGLVQAGGSLRLSCAASGLTFYQYDMGWYRQAPGKERELVAAISRSGGRTYYADSVKGRFTISRDIAMITVYLQMNSLKPEDTAVYYCARPDKRLEYSENYYWGQGSQVTVSS | high polyreactivity
14 | QDQLVESGGGLVQAGGSLRLSCAASGLTLKENVMGWYRQAPGKERELFAAISTGASTYYADSVKGRFTISRDNAKNTVYLQMNSLKPEDTAVYYCAKRVTPWYGYWGQGTQVTVSS | high polyreactivity
15 | QDQLVESGGGLVQAGGSLRLSCAASGNIFCYYVMGWYRQAPGKERELVAAITWSGGTTNYADSVKGRFTISRDNAKNTVYLQMNSLKPDDTAVYDCATDRYAYKLYDYWGQGTQVTVSS | low polyreactivity
16 | QDQLVESGGGLVQAGGSLRLSCAASGNIIRKYAMGWYRQAAGKEREFVAAISSSGGRTYYADSVKGRFTISRDNAKNTVYLQMNSLKPEDTAVYYCAAEDWSYYDYDYWGQGTQVTVSS | high polyreactivity

Row | Sequence | polyreactivity (PSR sort gate)
17 | QDQLVESGGGLVQAGGSLRLSCAASGRIFDDTAMGWSRPAPGKERELVAAITGGGRTNYADSVKGRFTISRDNAKNTVYLQMNSLKPEDTAVYYCAAATYGWVIYIYDYWGQGTQVTVSS | low polyreactivity
18 | QDQLVESGGGLVQAGGSLRLSCAASGRIFDYNVMGWYRQAPGTEREFVADINGSGGGTNYADSVKGRFTISRDNAKNTVYFLMNSLKPEDTAVSYCNADSYEYHVPYYDYRYDYWGQGTQVTVSS | low polyreactivity
19 | QDQLVESGGGLVQAGGSLRLSCAASGRIFYFNTMGWSRQAPGKERELVAAISKNGGSTYYADSVKGRFTISRDIAKNTVYLQMNSLKPEDTAVYYCAKTRRLSPYDYWGQGTQVTVSS | high polyreactivity
20 | QDQLVESGGGLVQAGGSLRLSCAASGRIIQYYDMGWYRQAPGKERELVAAITSNGGRTYYADSVKGRFTISRDNAKNTVFLLMNILKPEDTAVYYCAKTFDFSAYPPLTLKYGYWGQGTQVTVSS | high polyreactivity
21 | QDQLVESGGGLVQAGGSLRLSCAASGRILGSNTMGWDRQAPGKERELVAAITSAGNTNYADSVKGRFTISRDNAKNTVYLQMNSLKPEDTAVYYCNVRGQRLYYRVRRLYDYWGQGTQVTVSS | high polyreactivity
22 | QDQLVESGGGLVQAGGSLRLSCAASGRILINNAMVWYRQAPGKERELVARITRGGRTNYADSVNGRFTISRDNPKNTDYFQMYCPKPVDTAVYDCNAEYVTPYYYGFGAKRDYWGQGTQVTVSS | low polyreactivity
23 | QDQLVESGGGLVQAGGSLRLSCAASGRINAMGWYRQAPGKERELVAVITLRGGSTYYADSVKGRFTISRDNAKNTVYLQMNSLKPEDTAVYYCAAETLVSFWFDYWGQGTQVTVSS | low polyreactivity
24 | QDQLVESGGGLVQAGGSLRLSCAASGRNFELYAMGWYRPAPRKERELVATISGSGGSTYYADSVKGRFTISRDNAKNTVYLQMNSLKPEDTAVFYCAKNAYGYYYSRSDDWGQGTQVTVSS | low polyreactivity
25 | QDQLVESGGGLVQAGGSLRLSCAASGRNFGYYTRGWYRQAPGKERELVATINWSGGNTYYADSVKGRFTISRDNAKNTVYLQMTCLKPEDTAVYYCATRSRAPQQVYYQNYDYWGQGTQVTVSS | high polyreactivity
26 | QDQLVESGGGLVQAGGSLRLSCAASGRNFSFNPMGLYRQAPGKERELVATIRTDGTTNYADSVKGRFTISRDNAKNTVYVQMNSLKPEDTAVYYCAADSAYHRRRMYYWGQGTQVTVSS | high polyreactivity
27 | QDQLVESGGGLVQAGGSLRLSCAASGRTFFWNAMGWYRPAPGKERELVAAITWSGGSTYYADSVKGRFTISRDNAKNTVYLQMNSLKPEDPAVYYCAAVVTDYVWRSEYWGQGTQVTVSS | low polyreactivity
28 | QDQLVESGGGLVQAGGSLRLSCAASGRTFHLYAMGWYRPAPGKERELVAAIRWTGVSTYYADSVKGRFTISRDNAKNTVYLEMNSLKPEDTAVYYCATKQRYRVSRDWSSYCYGYWGQGTQVTVSS | high polyreactivity
29 | QDQLVESGGGLVQAGGSLRLSCAASGRTFKTYAMGWYRQAPGKERELVAAISYSSGRTYYADSVKGRFTISRDNAKNTVYLQMNSLKPEDTAVYYCASLGSGVPRYYYWGQGTQVTVSS | high polyreactivity
30 | QDQLVESGGGLVQAGGSLRLSCAASGRTFPWYAMGWYRPAPGKERELVAAISTGGSRTYYADSVKGRFTISRDNAKNTVYLQMNSLKPEDTAVYYCNARNTLRDYPYGYWGQGTQVTVSS | high polyreactivity
31 | QDQLVESGGGLVQAGGSLRLSCAASGRTFRYNAMGWYRQAPGKERELVAAISGRGSSTYYADSVKGRFTISRDNAKNTVYLQMNSLKPEETAVYYCAALPASVRRPGWHDYWGQGTQVTVSS | high polyreactivity
32 | QDQLVESGGGLVQAGGSLRLSCAASGRTFTYYAMGWYRQAPGKDRELDAGISSGGGSTYYADSVKGRFTISRDHAKNTVYLQMNSLKPEDTAVYYCATAKRQGGYSEYDYWGQGTQVTVSS | high polyreactivity
